From patent EP2204447B1

Biological target: streptavidin (UniProt P22629)
Assay: capture of cells on streptavidin coated magnetic beads, before selection

Chain of UniProt P22629 (P22629 37-163 limits assumed): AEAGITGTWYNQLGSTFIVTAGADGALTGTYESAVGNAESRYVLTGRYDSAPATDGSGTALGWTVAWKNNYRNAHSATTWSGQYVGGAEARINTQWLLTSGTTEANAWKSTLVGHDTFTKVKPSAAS

proportion of cells which bind to the beads: 0.02%
Substance: Ramos IgM (immunoglobulin of the unselected / wild-type Ramos Burkitt lymphoma cell line) (antibody)
